The results in this text go back to paper PMC3124080.

Usually stoichiometry N stands for the number of molecules, sites or subunits per partner or assembly.

In the assay the target is Trypanosoma cruzi uridine phosphorylase (Trypanosoma cruzi). The assay is described as follows: SEC. (In general: SEC sorts molecules by how far they enter the pores of the column.)

As for “Trypanosoma cruzi uridine phosphorylase (enzyme)”, the stoichiometry N is 2.
